Consider 2 molecules from patent US20090028872A1 (Bristol-Myers Squibb, published 2009).

Experiment [1] addresses T1, human CD70 expressed on the cell surface (human, UniProt P32970 1-193).
T1 sequence (looked up): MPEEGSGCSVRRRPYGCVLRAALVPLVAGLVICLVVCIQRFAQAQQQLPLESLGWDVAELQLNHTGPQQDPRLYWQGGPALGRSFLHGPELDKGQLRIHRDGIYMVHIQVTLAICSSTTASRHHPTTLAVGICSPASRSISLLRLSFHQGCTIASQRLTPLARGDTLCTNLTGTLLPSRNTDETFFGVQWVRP
The experiment in a line: cell-based or functional assay.

Experiment [2] deals with T1, human CD70 expressed on the cell surface. The experiment is described as follows: flow cytometry titration on A498 cells, PE anti-human IgG. On the procedure:
Binding of the anti-CD70 human monoclonal antibodies was assessed by incubating 5×10⁵ cells with antibody at a starting concentration of 50 μg/ml and serially diluting the antibody at a 1:3 dilution. The cells were washed and binding was detected with a PE-labeled anti-human IgG Ab. Flow cytometric analyses were performed using a FACSCalibur flow cytometry (Becton Dickinson, San Jose, Calif.).
A general note: Flow cytometry measures light scatter and fluorescence of single cells or particles in a stream.

Experiment [3] deals with human CD16 on effector cells (human, UniProt P08637 17-254). The experiment in a line: cell-based or functional assay.

A word on the EC50 (read off the curve): it is the midpoint of the concentration-response curve. A high value points to weaker potency.

human CD16 on effector cells, sequence (P08637 17-254): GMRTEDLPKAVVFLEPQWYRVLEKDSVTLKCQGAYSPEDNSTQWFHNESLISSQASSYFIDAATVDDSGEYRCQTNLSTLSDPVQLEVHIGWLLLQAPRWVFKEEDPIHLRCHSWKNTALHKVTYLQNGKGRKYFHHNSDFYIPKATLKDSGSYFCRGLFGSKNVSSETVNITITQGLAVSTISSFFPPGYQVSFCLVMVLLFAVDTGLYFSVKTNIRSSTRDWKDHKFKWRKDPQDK

B1: anti-CD70 human monoclonal antibody 2H5 (antibody, V domains shown)
VH: QVQLVESGGGVVQPGRSLRLSCAASGFTFSSYIMHWVRQAPGKGLEWVAVISYDGRNKYYADSVKGRFTISRDNSKNTLYLQMNSLRAEDTAVYYCARDTDGYDFDYWGQGTLVTVSS
VL: EIVLTQSPATLSLSPGERATLSCRASQSVSSYLAWYQQKPGQAPRLLIYDASNRATGIPARFSGSGSGTDFTLTISSLEPEDFAVYYCQQRTNWPLTFGGGTKVEIK
notes: Fully human IgG with kappa light chain, from a hybridoma; human IgG1 isotype controls were used; also called HuMAb 2H5
Turning to B1, the “EC50 of decrease in ^3H-thymidine incorporation, Hum-Zap internalization assay, 786-O cells” value in experiment [1] amounted to 0.942 nM. Moreover, in experiment [2], the “EC50 (read off the curve)” value is about 7 nM.

B2: non-fucosylated anti-CD70 human monoclonal antibody 2H5 (antibody, V domains shown)
VH: QVQLVESGGGVVQPGRSLRLSCAASGFTFSSYIMHWVRQAPGKGLEWVAVISYDGRNKYYADSVKGRFTISRDNSKNTLYLQMNSLRAEDTAVYYCARDTDGYDFDYWGQGTLVTVSS
VL: EIVLTQSPATLSLSPGERATLSCRASQSVSSYLAWYQQKPGQAPRLLIYDASNRATGIPARFSGSGSGTDFTLTISSLEPEDFAVYYCQQRTNWPLTFGGGTKVEIK
modifications: antibody lacking in fucosyl residues (expressed in FUT8-deficient CHO cell line Ms704-PF)
Take B2: the “amount of anti-CD16 3G8 needed to reverse inhibition, 2H5NF against 2H5” value in experiment [3] is about 1000 fold.
